From publication doi:10.1101/2025.04.02.646914 come the findings set out here.

Common to all, as to test: FP
Series [1] concerns the target MS2 coat protein W32A (bacteriophage MS2, UniProt P03612 2-130, W33A).
The target of series [2] is MS2 coat protein N55D (bacteriophage MS2, UniProt P03612 2-130, N56D).
Series [3] deals with MS2 coat protein WT (bacteriophage MS2, UniProt P03612 2-130).

B1: 5' fluoro MS2 SL (structured_RNA)
RNA: CCUACAUGAGGAUUACCCAUGUU
On to B1, for which the binding result in series [1] is on record as “no binding”; in series [2], “no binding”; in series [3], “binds”.
